This is an account of results in US20180256644A1.

The target of assay [1] is human CD28 (full-length, expressed on transfected Expi293F cells) (human) (UniProt P10747). The assay is described as follows: flow cytometry, transfected Expi293 cells.
The target in assay [2] is human PD-L1 (full-length, expressed on transfected Expi293F cells) (human) (UniProt Q9NZQ7). Kind of assay: flow cytometry, transfected Expi293 cells.
For assay [3] the target is unchanged. Kind of assay: flow cytometry; ratio to WT parental stack. A general note: Flow cytometry measures light scatter and fluorescence of single cells or particles in a stream.
Assay [4] has as its target human CD28 (full-length, expressed on transfected Expi293F cells) (human) (UniProt P10747). Kind of assay: flow cytometry; ratio to WT parental stack.
Assay [5] deals with human PD-L1, full-length, expressed on Expi293F cells (human) (UniProt Q9NZQ7). Kind of assay: flow cytometry, Expi293 cells expressing human PD-L1.
Assay [6] deals with human CTLA4, full-length, expressed on Expi293F cells (human) (UniProt P16410). Kind of assay: flow cytometry, Expi293 cells expressing human CTLA-4.
For assay [7], the target named is human CD28 (full-length, expressed on transfected Expi293F cells) (human) (UniProt P10747). Kind of assay: flow cytometry; ratio to WT ICOSL ECD-Fc.

Chain of UniProt P16410 (P16410 36-223): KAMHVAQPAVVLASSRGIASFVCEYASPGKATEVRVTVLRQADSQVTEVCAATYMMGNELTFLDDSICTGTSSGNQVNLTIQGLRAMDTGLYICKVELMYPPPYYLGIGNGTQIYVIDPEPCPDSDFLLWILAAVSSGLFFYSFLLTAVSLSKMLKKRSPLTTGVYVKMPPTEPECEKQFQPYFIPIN

For the molecule “ICOSL WT / Nkp30 WT stacked IgV-Fc (Fc fusion)”, in assay [1], the MFI amounted to 7920 MFI. In assay [2], “CD80 WT / CD86 WT stacked IgV-Fc (Fc fusion)” displayed an MFI of 2080 MFI. In the case of “CD86 Q35H/H90L/Q102H / CD80 A12T/H18L/N43V/F59L/E77K/P109S/I118T stacked IgV-Fc (Fc fusion)”, the WT parental MFI ratio in assay [3] was found to be 1.39. Besides, the MFI in assay [2] is 2110 MFI.

For “NKp30 WT / CD86 WT stacked IgV-Fc (Fc fusion)”, the MFI in assay [1] is 1690 MFI. “CD80 WT / ICOSL WT stacked IgV-Fc (Fc fusion)”: the MFI in assay [1] was determined as 1230 MFI; in assay [2], 2660 MFI. “CD80 I67T/L70Q/A91G/T120S / CD80 E88D/K89R/D90K/A91G/F92Y/K93R stacked IgV-Fc (Fc fusion)”: the WT parental MFI ratio in assay [4] amounted to 0.57. Besides, in assay [1], the MFI is 938 MFI. In turn, “ICOSL WT / CD80 WT stacked IgV-Fc (Fc fusion)” returned an MFI in assay [2] of 2970 MFI. Regarding CD80 variant A91G/S103P ECD-Fc fusion, in assay [5], the MFI came to 9 MFI and the MFI parental ratio (fold of WT CD80) turned out to be 0.13.

“CD80 WT / CD80 WT stacked IgV-Fc (Fc fusion)” displayed an MFI in assay [1] of 1630 MFI. Still for that read-out and setting: as for “NKp30 WT / ICOSL WT stacked IgV-Fc (Fc fusion)”, the figure is 6340 MFI.

B1: CD80 variant L70Q/A91G/T110A/T120S/T130A ECD-Fc fusion (Fc fusion)
chain: VIHVTKEVKEVATLSCGHNVSVEELAQTRIYWQKEKKMVLTMMSGDMNIWPEYKNRTIFDITNNLSIVIQALRPSDEGTYECVVLKYEKDGFKREHLAEVTLSVKADFPAPSISDFEIPSSNIRRIICSASGGFPEPHLSWLENGEELNAINTTVSQDPETELYAVSSKLDFNMTTNHSFMCLIKYGHLRVNQTFNWNTTKQEHFPDNAAAEPKSSDKTHTCPPCPAPELLGGPSVFLFPPKPKDTLMISRTPEVTCVVVDVSHEDPEVKFNWYVDGVEVHNAKTKPCEEQYGSTYRCVSVLTVLHQDWLNGKEYKCKVSNKALPAPIEKTISKAKGQPREPQVYTLPPSREEMTKNQVSLTCLVKGFYPSDIAVEWESNGQPENNYKTTPPVLDSDGSFFLYSKLTVDKSRWQQGNVFSCSVMHEALHNHYTQKSLSLSPGK
Take B1: in assay [6], the MFI came out at 14 MFI and the MFI parental ratio (fold of WT CD80) stood at 0.07.

B2: CD80 variant V20L/L70Q/A91S/T120S/T130A ECD-Fc fusion (Fc fusion)
chain: VIHVTKEVKEVATLSCGHNLSVEELAQTRIYWQKEKKMVLTMMSGDMNIWPEYKNRTIFDITNNLSIVIQALRPSDEGTYECVVLKYEKDSFKREHLAEVTLSVKADFPTPSISDFEIPSSNIRRIICSASGGFPEPHLSWLENGEELNAINTTVSQDPETELYAVSSKLDFNMTTNHSFMCLIKYGHLRVNQTFNWNTTKQEHFPDNAAAEPKSSDKTHTCPPCPAPELLGGPSVFLFPPKPKDTLMISRTPEVTCVVVDVSHEDPEVKFNWYVDGVEVHNAKTKPCEEQYGSTYRCVSVLTVLHQDWLNGKEYKCKVSNKALPAPIEKTISKAKGQPREPQVYTLPPSREEMTKNQVSLTCLVKGFYPSDIAVEWESNGQPENNYKTTPPVLDSDGSFFLYSKLTVDKSRWQQGNVFSCSVMHEALHNHYTQKSLSLSPGK
With B2, in assay [5], the MFI turned out to be 9 MFI and the MFI parental ratio (fold of WT CD80) amounted to 0.13.

B3: ICOSL variant ECD-Fc F120S/Y152H/N201S (Fc fusion)
chain: DTQEKEVRAMVGSDVELSCACPEGSRFDLNDVYVYWQTSESKTVVTYHIPQNSSLENVDSRYRNRALMSPAGMLRGDFSLRLFNVTPQDEQKFHCLVLSQSLGFQEVLSVEVTLHVAANSSVPVVSAPHSPSQDELTFTCTSINGYPRPNVHWINKTDNSLLDQALQNDTVFLNMRGLYDVVSVLRIARTPSVNIGCCIESVLLQQNLTVGSQTGNDIGERDKITENPVSTGEKNAATAAAEPKSSDKTHTCPPCPAPELLGGPSVFLFPPKPKDTLMISRTPEVTCVVVDVSHEDPEVKFNWYVDGVEVHNAKTKPCEEQYGSTYRCVSVLTVLHQDWLNGKEYKCKVSNKALPAPIEKTISKAKGQPREPQVYTLPPSREEMTKNQVSLTCLVKGFYPSDIAVEWESNGQPENNYKTTPPVLDSDGSFFLYSKLTVDKSRWQQGNVFSCSVMHEALHNHYTQKSLSLSPGK
For the molecule B3, in assay [7], the MFI parental ratio came to 0.89.
